Results on 7 molecules are retold here after US20250333497A1 (University of California, published 2025).

The target in assay [1] is T1, Full length PLXDC1 (PLXDC1-Full) (Homo sapiens (Human), UniProt Q8IUK5 19-500).
T1 construct: also called full PLXDC1 protein
T1 sequence: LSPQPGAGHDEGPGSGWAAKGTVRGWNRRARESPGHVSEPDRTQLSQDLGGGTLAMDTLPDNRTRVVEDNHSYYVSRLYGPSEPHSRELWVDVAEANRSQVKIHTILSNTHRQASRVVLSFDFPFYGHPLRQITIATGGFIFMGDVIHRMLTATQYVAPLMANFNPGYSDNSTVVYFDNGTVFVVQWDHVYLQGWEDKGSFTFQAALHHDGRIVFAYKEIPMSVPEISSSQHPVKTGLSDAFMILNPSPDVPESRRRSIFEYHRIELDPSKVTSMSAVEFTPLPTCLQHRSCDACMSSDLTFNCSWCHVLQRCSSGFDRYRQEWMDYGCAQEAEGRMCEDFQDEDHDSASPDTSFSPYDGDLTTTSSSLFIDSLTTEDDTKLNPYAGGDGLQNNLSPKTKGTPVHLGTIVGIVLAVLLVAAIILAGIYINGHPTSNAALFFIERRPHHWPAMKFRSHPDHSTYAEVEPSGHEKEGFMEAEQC
As to the kind of experiment: staining of transfected cells (FIG. 3-4). The text has this: (§1) Both full length PLXDC1 and Domain A deleted PLXDC1 (PLXDC1-dA) have an epitope tag on the N-terminus.

Assay [2] addresses T2, domain A-deleted PLXDC1 (PLXDC1-dA) (Homo sapiens (Human), UniProt Q8IUK5 128-500).
T2 construct: also called mutant with Domain A deleted
As to the kind of experiment: staining of transfected cells (FIG. 3C-H).
From the text: as §1

Assay [3] has as its target T2, domain A-deleted PLXDC1 (PLXDC1-dA). As to the kind of experiment: staining of transfected cells (FIG. 4A-H).
From the text: as §1

B1: A001 (antibody, V domains shown)
VH: EVQLLESGGGLVQPGGSLRLSCAASGFTFSSYAMSWVRQAPGKGLEWVSTIYASGATTYYADSVKGRFTISRDNSKNTLYLQMNSLRAEDTAVYYCARLKLYHAAFDIWGQGTLVTVSS
VL: DIQMTQSPSSLSASVGDRVTITCRASQDISSYLNWYQQKPGKAPKLLIYTASSLQSGVPSRFSGSGSGTDFTLTISSLQPEDFATYYCQQSYSYPLTFGQGTKVEIK
notes: VH/VL only; also called 3-C11
With B1, the binding result is “binds” in assay [1] and “no binding” in assay [2].

B2: A002 (antibody, V domains shown)
VH: EVQLLESGGGLVQPGGSLRLSCAASGFTFKNYAMSWVRQAPGKGLEWVSAISASGGYTYYADSVKGRFTISRDNSKNTLYLQMNSLRAEDTAVYYCARGRWGAFDYWGQGTLVTVSS
VL: QSVLTQPPSVSGAPGQRVTISCTGSSSNIGSGYDVHWYQQLPGTAPKLLIYGNRNRPSGVPDRFSGSKSGTSASLAITGLQAEDEADYYCQSYDSSLKTWVFGGGTKLTVL
notes: VH/VL only; also called 4-A8
B2: the binding result in assay [1] is reported as “binds”; in assay [2], “no binding”.

B3: A006 (antibody, V domains shown)
VH: QVQLVQSGAEVKKPGSSVKVSCKASGGTFSTEYISWVRQAPGQGLEWMGRIIPVLGITNYAQKFQGRVTITADESTSTAYMELSSLRSEDTAVYYCARHLGPPYLVTYSHGFDVWGQGTLVTVSS
VL: EIVMTQSPATLSVSPGERATLSCRASQSLGTNLAWYQQKPGQAPRLLIYGASTRATGIPARFSGSGSGTEFTLTISSLQSEDFAVYYCQQYYEAPPTFGQGTKVEIK
notes: VH/VL only; also called 3-G7
Turning to B3, the binding result was “binds” in assay [1] and “no binding” in assay [3].

B4: A007 (antibody, V domains shown)
VH: EVQLLESGGGLVQPGGSLRLSCAASGFTFRNYAMSWVRQAPGKGLEWVSSISGGGINTYYADSVKGRFTISRDNSKNTLYLQMNSLRAEDTAVYYCARVRSYSGPGYFDYWGQGTLVTVSS
VL: EIVMTQSPATLSVSPGDRATLSCRASRSVSSNLAWYQQKPGQAPRLLIYGASTRATGIPARFSGSGSGTEFTLTISSLQSEDFAVYYCQQYYNWPLTFGQGTKVEIK
notes: VH/VL only; also called 8-A7
As for B4, the results for the binding result in assay [1] and in assay [3] were “binds” and “no binding”, respectively.

B5: A003 (antibody, V domains shown)
VH: QVQLVESGGGVVQPGRSLRLSCAASGFTFRDYGMHWVRQAPGKGLEWVAVISYHGRNEYYANSVKGRFTISRDNSKNTLYLQMNSLRAEDTAVYYCARGAYGDDFDVWGQGTLVTVSS
VL: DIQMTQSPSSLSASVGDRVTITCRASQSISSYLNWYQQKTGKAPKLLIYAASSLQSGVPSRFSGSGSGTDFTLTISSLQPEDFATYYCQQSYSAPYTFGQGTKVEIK
notes: VH/VL only; also called 5-E2
B5: the binding result is on record as “binds” in assay [1] and “no binding” in assay [2].

B6: A004 (antibody, V domains shown)
VH: QVQLVESGGGVVQPGRSLRLSCAASGFTFSDYGMHWVRQAPGKGLEWVAVISYEGSNEYYADSVKGRFTISRDNSKNTLYLQMNSLRAEDTAVYYCARGSEGSGFDVWGQGTLVTVSS
VL: DIQMTQSPSSLSASVGDRVTITCRASQRISNYLNWYQQKPGKAPKLLIYAASSLQSGVPSRFSGSGSGTDFTLTISSLQPEDFATYYCQQSYSPPYTFGQGTKVEIK
notes: VH/VL only; also called 2-H2
Take B6: the binding result is “binds” in assay [1] and “no binding” in assay [3].

B7: A005 (antibody, V domains shown)
VH: QVQLVESGGGVVQPGRSLRLSCAASGFTFSDYGMHWVRQAPGKGLEWVAVISYDGSRKYYANSVKGRFTISRDNSKNTLYLQMNSLRAEDTAVYYCARGSYSDGFDVWGQGTLVTVSS
VL: DIQMTQSPSSLSASVGDRVTITCRASQSISRYLNWYQQKTGKAPKLLIYGASSLQSGVPSRFSGSGSGTDFTLTISSLQPEDFATYYCQQSYSTPYTFGQGTKVEIK
notes: VH/VL only; also called 3-G6
As for B7, the binding result was “binds” in assay [1] and “no binding” in assay [3].
